Consider one substance from patent publication US20250076264A1.

For this assay, the target named is Human α-thrombin (Haematologic Technologies, Inc.) (human). Kind of assay: cell-based or functional assay.

Regarding “Antithrombin (Grifols Therapeutics Inc.) (from UniProt P01008 33-464)”, the time to completion of the fluorescence increase (dissociation of the TBA15-F9+TBA29-D9+thrombin complex) after adding 1940 nM ATIII to 200 nM complex was 600 s.
